Assays:
[1] = molecular target: T1, Biotinylated CD96 antigen (human, UniProt P40200-2 22-503, limits assumed, biotinylated); experiment: competition ELISA: antibody B pre-incubated with biotinylated CD96 antigen, added to a plate coated with antibody A, HRP-streptavidin, OD450; competitor: coated h1718-012
T1 sequence (looked up): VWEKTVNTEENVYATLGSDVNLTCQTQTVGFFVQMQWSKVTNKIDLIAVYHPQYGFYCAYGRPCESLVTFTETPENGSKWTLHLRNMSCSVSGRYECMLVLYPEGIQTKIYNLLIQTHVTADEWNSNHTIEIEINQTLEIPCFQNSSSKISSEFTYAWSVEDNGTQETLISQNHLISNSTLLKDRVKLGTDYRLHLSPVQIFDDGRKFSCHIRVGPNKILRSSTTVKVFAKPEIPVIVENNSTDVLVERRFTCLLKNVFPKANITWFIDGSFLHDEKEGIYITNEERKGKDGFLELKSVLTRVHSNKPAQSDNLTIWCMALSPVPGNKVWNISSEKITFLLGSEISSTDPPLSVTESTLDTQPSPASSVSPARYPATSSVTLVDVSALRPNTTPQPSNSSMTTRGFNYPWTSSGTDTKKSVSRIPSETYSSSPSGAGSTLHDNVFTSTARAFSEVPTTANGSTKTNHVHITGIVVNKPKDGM
Description: Competitive assays of different antibodies binding to CD96 protein were used to classify binding epitopes of the antibodies. The specific experimental methods are as follows:
Antibody A was diluted to a concentration of 2 μg/ml with PBS buffer (Shanghai Yuanpei Biotechnology Co., Ltd. Cat No. B320), pH 7.4, added to a 96-well microtiter plate (Corning, Cat No. CLS3590-100EA) at a volume of 50 μl/well, and coated at 4° C. overnight. After discarding the liquid, 250 μl/well of 5% skim milk (BD skim milk, Cat No. 232100) blocking solution diluted with PBS was added, and the plate was incubated at 37° C. for 3 hours. After blocking, the blocking solution was discarded, and the plate was washed 5 times with PBST buffer (pH 7.4 PBS containing 0.05% tween-20) and stored for later use. Antibody B was diluted to 40 μg/ml and 8 μg/ml with 1% BSA, and Biotinylated CD96 antigen was simultaneously diluted to 4 μg/mL. Subsequently, antibody B and antigen were mixed in a 1:1 volume ratio, pre-incubated at 37° C. for 45 minutes, added into the enzyme plate coated with antibody A, thus incubating the plate in an incubator at 37° C. for 1.5 hours. […] The absorption value was read at 450 nm with a NOVOStar microplate reader, and the OD value was used to determine whether A and B CD96 antibodies compete with each other. […]

[2] = molecular target: T2, CD96 extracellular region with His tag (CD96-His) (human, UniProt P40200 22-519); experiment: blocking cell ELISA: antibody pre-mixed with Bio-CD96-His, added to fixed CD155-CHO cells, HRP-streptavidin, OD450; blocked ligand: human CD155 on CHO cells
T2 construct: also called CD96-ECD-His; Bio-CD96-His (biotin-labelled form)
T2 sequence: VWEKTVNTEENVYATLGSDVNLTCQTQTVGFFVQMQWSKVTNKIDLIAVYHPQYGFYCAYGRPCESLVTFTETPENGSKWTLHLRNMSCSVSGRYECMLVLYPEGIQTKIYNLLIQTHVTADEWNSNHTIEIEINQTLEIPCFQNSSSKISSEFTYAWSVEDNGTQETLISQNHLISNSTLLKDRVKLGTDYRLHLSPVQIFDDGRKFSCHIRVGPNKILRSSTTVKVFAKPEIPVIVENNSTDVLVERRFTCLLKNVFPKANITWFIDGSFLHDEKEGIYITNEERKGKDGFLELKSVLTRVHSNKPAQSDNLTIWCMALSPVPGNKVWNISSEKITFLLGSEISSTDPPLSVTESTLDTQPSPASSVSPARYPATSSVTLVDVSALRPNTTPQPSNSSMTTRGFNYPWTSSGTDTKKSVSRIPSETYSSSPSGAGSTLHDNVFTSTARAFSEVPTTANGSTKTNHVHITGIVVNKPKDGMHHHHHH
Description: CD155-CHO cells (constructed by Shanghai Hengrui) were seeded in 96-well culture plates at a density of 9×10⁴/100 μL/well and cultured overnight. After aspirating the supernatant, the plate was washed once with PBS, 100 μl/well of immunostaining fixation solution (Biyuntian, Cat No. P0098) was added and fixed for one hour at room temperature, and the plate was washed three times with PBS. After discarding the liquid, 250 μl/well of 5% skim milk (BD, Cat No. 232100) blocking solution diluted with PBS was added, and the plate was blocked in an incubator at 37° C. for 2.5 hours. After blocking, the blocking solution was discarded, subsequently, the plate was washed 4 times with PBST buffer (pH 7.4 PBS containing 0.05% tween-20). […] The absorption value was read at 450 nm with a NOVOStar microplate reader, and the EC50 value of the effect of CD96 antibody on blocking the binding between the antigens and CD155-CHO cells was calculated (see FIG. 2 and Table 16).

B1: h1719-010 (antibody, V domains shown)
VH: EVTLKESGPVLVKPTETLTLTCTVSGFSLSSYGVSWVRQPPGKGLEWLGVIWGDGNTNYHSVLISRLTISKDTSKSQVVLTLTNMDPVDTATYYCAKQNYYGSRYGYPIDYWGQGTTVTVSS
VL: DIQMTQSPSSVSASVGDRVTITCKATQDVGTAVAWYQQKPGKAPKLLIYWASTRHTGVPSRFSGSGSGTDFTLTISSLQPEDFATYYCQQYGSSVLTFGGGTKVEIK
notes: Only variable regions are tied to this name
[1]
  IC50 (read off the curve): ~0.6 nM
[2]
  IC50 (read off the curve): ~0.6 nM
